Assay results published in patent publication US20260109763A1 (DENALI THERAPEUTICS, published 2026).
Changes are numbered by the printed parent chain.

T1: hPANP(76-178) (human, UniProt Q8IYJ0 76-178)
T1 construct: range 76-178; also called PIANP; PILRA-associated neural protein
T1 sequence (looked up): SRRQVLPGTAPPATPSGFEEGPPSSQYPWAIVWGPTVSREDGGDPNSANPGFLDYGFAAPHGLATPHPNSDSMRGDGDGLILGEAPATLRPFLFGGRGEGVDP

T2: hNPDC1(35-181) (human, UniProt Q9NQX5 35-181)
T2 construct: range 35-181; also called neural proliferation differentiation and control protein 1
T2 sequence (looked up): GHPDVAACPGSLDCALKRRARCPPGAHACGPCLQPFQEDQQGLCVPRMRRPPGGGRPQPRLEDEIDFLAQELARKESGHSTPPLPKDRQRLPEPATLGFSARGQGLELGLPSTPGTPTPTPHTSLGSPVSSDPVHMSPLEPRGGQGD

B1: Anti-PILRA antibody clone 6 (antibody, V domains shown)
VH: EVQLQQSGPELQRPGASVKLSCKASGYTFTEYYMYWVKQRPKQGLELIGRIDPEDGGTDYIEKFKNKATLTADTSSNTAYMQLSSLTSEDTATYFCATTIRGTVFAFWGQGTLVTVSS
VL: DIQMTQSPASLSASLGETVTIECRASEDIFNGLAWYQQKPGKSPHLLIYNAKTLHTGVPSRFSGSGSGSQYSLKINSLQSEDVASYFCQQYYDYPLTFGSGTKLEIK
notes: the printed lines of the VL are out of order there
B2: Anti-PILRA antibody clone 7 (antibody, V domains shown)
VH: B1 VH with I48M, I61V, T98S, A106V, F107Y
VL: B1 VL with A25P, F30Y, K42E, H45Q, K52N, T53S, S69T
B3: Reference Antibody #1 (antibody, human IgG1, kappa, L234A L235A, V domains shown)
VH: QVTLQESGPGILQPSQTLSLTCSFSGFSLSTFGMGVGWIRQPSGKGLEWLAHIWWDDDKYYNPALKSRLTISKDTSKNQVFLKIASVDTADIATYYCARVEDYGNPFDYWGQGTTLTVSS
VL: DIQMNQSPSSLSASLGDTITITCHASQNIHVWLNWYQQKPGNIPKLLIYKASNLHTGVPSRFSGSGSGTGFTVTISSLQPEDIATYYCQQGQSYPLTFGAGTKLELKR
B4: Reference Antibody #2 (antibody, human IgG1, kappa, L234A L235A, V domains shown)
VH: QVILKESGPGILQSSQTLSLTCSFSGFSLSTFGMGVGWIRQPSGKGLESLAHIWWDDDKFYNPALKSRLTISKDTSKSQVFLKIANVDTADIATYYCTRIEDYGSYFAYWGQGTTLTVSS
VL: B3 VL with I2V, T18P, K39R, K45R, V73L, L96Y, A100G, L106I
B5: Reference Antibody #4 (antibody, human IgG1, kappa, L234A L235A, V domains shown)
VH: B3 VH with Q5K, S30T, T75I, S86N, I92T, V100I
VL: B3 VL with N34S, V73L
B6: human PILRA G78 extracellular domain (recombinant hPILRA ECD) (receptor)
chain: QPSGSTGSGPSYLYGVTQPKHLSASMGGSVEIPFSFYYPWELATAPDVRISWRRGHFHGQSFYSTRPPSIHKDYVNRLFLNWTEGQKSGFLRISNLQKQDQSVYFCRVELDTRSSGRQQWQSIEGTKLSITQAVTTTTQRPSSMTTTWRLSSTTTTTGLRVTQGKRRSDSWHISLETA
notes: also called hPILRA G78
B7: Anti-PILRA antibody clone 12 (antibody, V domains shown)
VH: EVQLVQSGAEVKKPGASVKVSCKASGYTFTEYYMYWVRQAPGQGLELIGRIDPEDGGTDYIEKFKNRVTITADTSTSTAYLELSSLRSEDTAVYYCATTIRGTVFAFWGQGTLVTVSS
VL: DIQMTQSPSSLSASVGDRVTITCRASEDIFNGLAWYQQKPGKSPKLLIYNAKTLHTGVPSRFSGSGSGSDYTLTISSLQPEDFATYFCQQYYDYPLTFGQGTKVEIK
notes: Humanized; also called Ab.12
B8: Anti-PILRA antibody clone 39 (antibody, V domains shown)
VH: B7 VH with I70L
VL: B7 VL
notes: Humanized
B9: Anti-PILRA antibody clone 38 (antibody, V domains shown)
VH: B7 VH with I61V, I70A, T98S, A106V, F107Y
VL: B7 VL with A25P, F30Y, S43A, K52N, T53S, S69T
notes: Humanized

How the values were obtained:
[1] = target: T3, human PILRA G78 on cells (human, UniProt Q9UKJ1 20-303); test: flow cytometry on HEK293 cells expressing hPILRA G78
T3 construct: wild-type iMicroglia are R78/G78 heterozygous (said in the assay field); also called hPILRA; hPILRA G78
Target sequence in this assay (Q9UKJ1 20-303 R78G limits assumed): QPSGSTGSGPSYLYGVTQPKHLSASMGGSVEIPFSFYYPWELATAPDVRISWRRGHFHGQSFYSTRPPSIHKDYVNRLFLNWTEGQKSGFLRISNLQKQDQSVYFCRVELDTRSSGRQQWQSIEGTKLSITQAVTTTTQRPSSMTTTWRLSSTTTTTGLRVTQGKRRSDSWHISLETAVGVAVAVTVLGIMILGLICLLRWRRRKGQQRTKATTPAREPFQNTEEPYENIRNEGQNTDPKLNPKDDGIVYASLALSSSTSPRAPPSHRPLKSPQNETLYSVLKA
Experimental: Parental HEK293 cells were labeled with NucBlue Live ReadyProbes Reagent for 30 mins. […] Antibody binding to the cells was detected by FACS and median fluorescence intensity (MFI) was derived from data analysis performed with the FLOJO software (FIGS. 1A-1C).

[2] = target: T4, human PILRA R78 on cells (human, UniProt Q9UKJ1 20-303); test: flow cytometry on HEK293 PILRA R78 cells without sialidase treatment; without sialidase treatment
T4 construct: also called hPILRA R78; PILRA 78R
Experimental: (§1) PILRA 78G or PILRA 78R expressing HEK293 cells were treated with SialEXO (Genovis). […] It is a combination of two sialidases acting on α2-3, α2-6 and α2-8 linkages. […] Cells were then washed twice and incubated and stained with NucBlue Live Stain for 30 mins at RT.
(§2) Following the same protocol, sialidase treatment was also performed on HEK cells expressing PILRA R78.

[3] = target: T3, human PILRA G78 on cells; test: flow cytometry on HEK293 PILRA G78 cells with sialidase treatment
Experimental: as §1

[4] = target: B6; test: SPR, Biacore 8K; antibody captured via anti-human Fab, recombinant ECD injected; 1:1 fit;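 further: CM5 sensor chip, ECD analyte in threefold dilution series at 30 µL/min, 3 min association and 10 min dissociation, kon and koff fitted simultaneously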
Experimental: (§3) Antibodies were captured on Biacore™ Series S CM5 sensor chips immobilized with mouse anti-human Fab (human Fab capture kit from GE Healthcare) followed by injections of serial 3-fold dilutions of recombinant ECD reagents at a flow rate of 30 μL/min. Each sample was analyzed using a 3-minute association followed by a 10-minute dissociation. After each injection, the sensor chip was regenerated using a 5 0 mM glycine pH2.0 regeneration buffer. A 1:1 Languir model of simultaneous fitting of kₒₙ and koff was used for kinetics analysis.

[5] = target: T5, human PILRA R78 extracellular domain (recombinant) (human, UniProt Q9UKJ1 20-197); test: as above
T5 construct: also called hPILRA R78
Experimental: as §3

[6] = target: T6, human PILRB extracellular domain (recombinant) (human, UniProt Q9UKJ0 20-191); test: as above
T6 construct: also called hPILRB
Experimental: as §3

[7] = target: T3, human PILRA G78 on cells; test: flow cytometry on PILRA G78 expressing CHO-K1 cells (FIG. 1H)
Target sequence in this assay (Q9UKJ1 20-303 R78G limits assumed): as above
Experimental: (§4) PILRA G78 or R78 overexpressing HEK293 cells were stained with NucBlue Live cell stain for 30 mins at RT. […] Cell lines were run in duplicate to account for intra-variability, for a total of N=3. The same protocol was used for CHO-K1 cells expressing hPILRA G78.

[8] = target: T4, human PILRA R78 on cells; test: flow cytometry on HEK293 PILRA R78 cells with sialidase treatment; with sialidase treatment
Experimental: as §1, §2

[9] = target: T4, human PILRA R78 on cells; test: cell-based or functional assay
[10] = target: T3, human PILRA G78 on cells; test: flow cytometry on HEK293 PILRA G78 cells without sialidase treatment
Experimental: as §1

[11] = target: T4, human PILRA R78 on cells; test: flow cytometry on PILRA R78 expressing HEK293 cells (FIG. 1F); HEK293 cells expressing PILRA R78
Experimental: as §4

[12] = target: T3, human PILRA G78 on cells; test: cell-based or functional assay
Target sequence in this assay (Q9UKJ1 20-303 R78G limits assumed): as above

[13] = target: T7, cynomolgus monkey PILRA extracellular domain (recombinant) (cynomolgus monkey); test: SPR, Biacore 8K; antibody captured via anti-human Fab, recombinant ECD injected; 1:1 fit;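 further: CM5 sensor chip, ECD analyte in threefold dilution series at 30 µL/min, 3 min association and 10 min dissociation, kon and koff fitted simultaneously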
T7 construct: also called cynoPILRA; Cyno PILRA
Experimental: as §3

[14] = target: T3, human PILRA G78 on cells; test: flow cytometry on PILRA G78 expressing HEK293 cells (FIG. 1D); HEK293 cells expressing PILRA G78
Experimental: as §4

[15] = target: T8, cynomolgus monkey PILRA on cells (cynomolgus monkey); test: flow cytometry, CHO cells expressing cynoPILRA, MFI as fold over isotype control
T8 construct: Expressed on CHO-K1 cells; also called cynoPILRA; cyno PILRA

[16] = target: T9, human PILRB on cells (human, UniProt Q9UKJ0 20-227); test: flow cytometry, CHO cells expressing hPILRB, MFI as fold over isotype control
T9 construct: Expressed on CHO-K1 cells, or together with DAP12 on HEK293 cells (hPILRB-DAP12 OE HEK293); also called hPILRB; hPILRB-DAP12

[17] = target: T7, cynomolgus monkey PILRA extracellular …; test: SPR, Biacore 8K, recombinant ECD
[18] = target: T6, human PILRB extracellular domain …; test: SPR, Biacore 8K, recombinant ECD
[19] = target: T1, hPANP(76-178); test: SPR (Biacore 8K): ligand injected over hPILRA ECD (300 nM) held by an anti-PILRA antibody captured on anti-human Fab; panel Ligand binding permitted, antibody not named
[20] = target: T2, hNPDC1(35-181); test: as above
[21] = target: B6; test: SPR, Biacore 8K; hPILRA ECD; antibody with wild-type Fc
[22] = target: B6; test: SPR
[23] = target: T5, human PILRA R78 extracellular domain …; test: SPR
Target sequence in this assay (Q9UKJ1 20-197 limits assumed): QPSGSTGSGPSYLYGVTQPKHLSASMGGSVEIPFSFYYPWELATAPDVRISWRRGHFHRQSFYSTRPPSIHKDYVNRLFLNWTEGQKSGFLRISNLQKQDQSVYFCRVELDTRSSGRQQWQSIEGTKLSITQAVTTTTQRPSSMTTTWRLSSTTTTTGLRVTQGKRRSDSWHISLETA

[24] = target: T7, cynomolgus monkey PILRA extracellular …; test: SPR
[25] = target: T6, human PILRB extracellular domain …; test: SPR
[26] = target: T3, human PILRA G78 on cells; test: flow cytometry on HEK293 cells expressing hPILRA G78; remark: listed apart in the source
Target sequence in this assay (Q9UKJ1 20-303 R78G limits assumed): as the sequence (Q9UKJ1 20-303 R78G limits assumed) above

[27] = target: B6; test: SPR; remark: listed apart in the source
[28] = target: T5, human PILRA R78 extracellular domain …; test: SPR; remark: listed apart in the source
Target sequence in this assay (Q9UKJ1 20-197 limits assumed): as the sequence (Q9UKJ1 20-197 limits assumed) above

[29] = target: T7, cynomolgus monkey PILRA extracellular …; test: SPR; remark: listed apart in the source
[30] = target: T6, human PILRB extracellular domain …; test: SPR; remark: listed apart in the source
[31] = target: T4, human PILRA R78 on cells; test: cell binding, HEK293 cells expressing hPILRA R78; antibody with modified Fc
[32] = target: T3, human PILRA G78 on cells; test: cell binding, HEK293 cells expressing hPILRA G78; antibody with modified Fc
Target sequence in this assay (Q9UKJ1 20-303 R78G limits assumed): as the sequence (Q9UKJ1 20-303 R78G limits assumed) above

T6 sequence (Q9UKJ0 20-191 limits assumed): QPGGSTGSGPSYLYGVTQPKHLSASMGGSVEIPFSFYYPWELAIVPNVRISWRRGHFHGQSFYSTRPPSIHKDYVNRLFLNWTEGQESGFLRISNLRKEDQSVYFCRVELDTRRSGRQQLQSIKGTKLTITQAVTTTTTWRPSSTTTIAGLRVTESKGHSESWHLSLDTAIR
T9 sequence (Q9UKJ0 20-227 limits assumed): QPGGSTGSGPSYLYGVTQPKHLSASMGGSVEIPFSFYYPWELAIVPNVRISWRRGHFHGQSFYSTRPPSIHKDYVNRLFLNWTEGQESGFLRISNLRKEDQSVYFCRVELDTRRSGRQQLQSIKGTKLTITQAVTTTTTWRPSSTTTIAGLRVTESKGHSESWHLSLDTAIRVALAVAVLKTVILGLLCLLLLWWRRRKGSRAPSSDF
T4 sequence (Q9UKJ1 20-303 limits assumed): as the sequence (Q9UKJ1 20-303 R78G limits assumed) above, with G59R counted along it
T7 sequence (chain, as listed by the source limits assumed): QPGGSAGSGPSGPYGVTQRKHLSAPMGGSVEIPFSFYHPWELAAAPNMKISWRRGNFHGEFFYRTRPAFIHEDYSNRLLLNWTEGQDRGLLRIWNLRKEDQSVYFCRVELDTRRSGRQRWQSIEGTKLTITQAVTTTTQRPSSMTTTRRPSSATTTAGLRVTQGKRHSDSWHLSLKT
T8 sequence (chain, as listed by the source limits assumed): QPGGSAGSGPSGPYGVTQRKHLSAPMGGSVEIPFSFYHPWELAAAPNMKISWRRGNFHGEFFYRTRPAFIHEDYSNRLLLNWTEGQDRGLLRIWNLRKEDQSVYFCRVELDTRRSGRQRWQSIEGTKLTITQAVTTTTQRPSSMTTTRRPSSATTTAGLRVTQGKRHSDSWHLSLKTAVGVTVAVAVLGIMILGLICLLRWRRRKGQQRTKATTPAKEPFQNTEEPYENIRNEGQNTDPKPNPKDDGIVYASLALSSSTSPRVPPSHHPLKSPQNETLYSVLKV

Binder: B1
- EC50 [1]: 9.3 nM
- EC50 [2]: 0.7 nM
- EC50 [3]: 4.8 nM
- Kd [4]: 0.72 nM
- Kd [5]: 9.6 nM
- Kd [6]: 90 nM
- EC50 [7]: 7.6 nM
- EC50 [8]: 0.3 nM
- pSTAT3 S727 induction, EC50 (nM) [9]: 7.13 nM
- pSTAT3 Y705 induction, EC50 (nM) [9]: 3.18 nM
- EC50 [10]: 13 nM
- EC50 [11]: 2 nM
- pSTAT3 S727 induction, EC50 (nM) [12]: 16 nM
- pSTAT3 Y705 induction, EC50 (nM) [12]: 12.1 nM

Binder: B2
- EC50 [1]: 13 nM
- EC50 [2]: 0.7 nM
- EC50 [3]: 3.2 nM
- Kd [4]: 1.2 nM
- Kd [5]: 17 nM
- Kd [13]: 4.8 nM
- Kd [6]: 250 nM
- EC50 [7]: 10 nM
- EC50 [14]: 12.9 nM
- EC50 [8]: 0.3 nM
- pSTAT3 S727 induction, EC50 (nM) [9]: 10.7 nM
- pSTAT3 S727 induction, Fold Over Background [9]: 28.9 fold
- pSTAT3 Y705 induction, EC50 (nM) [9]: 5.38 nM
- pSTAT3 Y705 induction, Fold Over Background [9]: 38.3 fold
- EC50 [10]: 9.5 nM
- EC50 [11]: 2.5 nM
- pSTAT3 S727 induction, EC50 (nM) [12]: 18.6 nM
- pSTAT3 S727 induction, Fold Over Background [12]: 26.6 fold
- pSTAT3 Y705 induction, EC50 (nM) [12]: 13 nM
- pSTAT3 Y705 induction, Fold Over Background [12]: 32.5 fold

Binder: B3
- binding result [15]: no binding (tested: 100 nM)
- binding result [16]: no binding (tested: 100 nM)
- binding result [17]: no binding
- binding result [18]: no binding

Binder: B4
- binding result [15]: no binding (tested: 100 nM)
- binding result [16]: no binding (tested: 100 nM)
- binding result [17]: no binding
- binding result [18]: no binding

Binder: B5
- binding result [15]: no binding (tested: 100 nM)
- binding result [16]: no binding (tested: 100 nM)
- binding result [17]: no binding
- binding result [18]: no binding

Binder: B6
- binding result [19]: binds
- binding result [20]: binds

Binder: B7
- Kd [21]: 1.58 nM
- EC50 [7]: 10.8 nM
- EC50 [14]: 12 nM
- Kd [22]: 1.2 nM
- Kd [23]: 17 nM
- Kd [24]: 1.8 nM
- Kd [25]: 263 nM
- pSTAT3 S727 induction, EC50 (nM) [9]: 7.41 nM
- pSTAT3 S727 induction, Fold Over Background [9]: 21.4 fold
- pSTAT3 Y705 induction, EC50 (nM) [9]: 4.53 nM
- pSTAT3 Y705 induction, Fold Over Background [9]: 34.6 fold
- EC50 [26]: 12 nM
- EC50 [11]: 2.7 nM
- pSTAT3 S727 induction, EC50 (nM) [12]: 16 nM
- pSTAT3 S727 induction, Fold Over Background [12]: 31.6 fold
- pSTAT3 Y705 induction, EC50 (nM) [12]: 11.7 nM
- pSTAT3 Y705 induction, Fold Over Background [12]: 31.3 fold

Binder: B8
- Kd [27]: 0.2 to 0.4 nM
- Kd [28]: 6.2 to 6.3 nM
- Kd [29]: 0.4 nM
- Kd [30]: 38 to 56 nM
- EC50 [31]: 1 to 2 nM
- EC50 [32]: 7 to 8 nM

Binder: B9
- Kd [27]: 0.3 to 0.7 nM
- Kd [28]: 11 nM
- Kd [29]: 0.2 to 0.3 nM
- Kd [30]: 35 to 53 nM
- EC50 [31]: 2 to 4 nM
- EC50 [32]: 13 to 14 nM
